Test results from publication PMC11272940, “UNC-45 assisted myosin folding depends on a conserved FX3HY motif implicated in Freeman Sheldon Syndrome” (Nature Communications, 2024).

B1: Myo4 peptide (residues 561–573) (peptide)
peptide: WKFIVSHYAVDVEY
notes: tryptophan introduced at the N-terminus for peptide quantification; also called myosin peptide; core of the myosin motif; source: synthetic peptide (in-house, HPLC purified)
B2: Full length C. elegans UNC-45 (from E. coli) (natural protein, UniProt G5EG62 1-961, looked up)
chain: MVARVQTAEEIRDEGNAAVKDQDYIKADELYTEALQLTTDEDKALRPVLYRNRAMARLKRDDFEGAQSDCTKALEFDGADVKALFRRSLAREQLGNVGPAFQDAKEALRLSPNDKGIVEVLQRLVKANNDKIKQTTSLANKVTDMEKLAFRGEAKDTEQKMTALNNLLVLCRESESGATGVWNQGALVPFVLNLINDASENEEVTVTAIRILDETIKNSVRCMKFLAMHDPDGPKSVRFVCRLMCKKSTKDFVDATGILVQRVFNAMAKMDRQKEMKPDPEVAEANKIWIIRVLLELQEMLQDPKVGAVQRETCIDLFLKNLMHMDGGIPRGWSWKFVEERGLLALLDVASQIPELCEYPVSAETRQHVAICLQRLEEDMVFDTKRTIFKEKVDMFFNALISRCTNDDEGHKYRIKLSCFLITMLQGPVDIGINLITNDQLTPIMLEMAASQDHLMQGIAAELIVATVSKHERAINMLKVGIPVLRALYDSEDPTVKVRALVGLCKIGAAGGDDISKATMKEEAVISLAKTCKKFLLETEKYSVDIRRYACEGLSYLSLDADVKEWIVDDSLLLKALVLLAKKAGALCVYTLATIYANLSNAFEKPKVDEEMVKLAQFAKHHVPETHPKDTEEYVEKRVRALVEEGAVPACVAVSKTESKNALELIARSLLAFAEYEDLRGRIIAEGGTVLCLRLTKEASGEGKIKAGHAIAKLGAKADPMISFPGQRAYEVVKPLCDLLHPDVEGKANYDSLLTLTNLASVSDSIRGRILKEKAIPKIEEFWFMTDHEHLRAAAAELLLNLLFFEKFYEETVAPGTDRLKLWVLYSAEVEEERLSRASAAGFAILTEDENACARIMDEIKSWPEVFKDIAMHEDAETQRRGLMGIANIMHSSNKLCSEIVSSEVFRVLVAVTKLGTINQERAGSTEQAKRGLEAAEKFGLIKATDREIYERENQMSTIQE
notes: UNC-45 chaperone, C. elegans; The C-terminal Strep tag is stated for the peptide spot assay; also called wildtype UNC-45; purified UNC-45; source: E. coli, purified (HisTrap or StrepTrap, SEC); not shown: Strep, C-terminal, kept
B3: C. elegans myosin motor domain MHC-B (1-790), wildtype (domain or fragment, UniProt P02566 1-790, looked up)
chain: MEHEKDPGWQYLRRTREQVLEDQSKPYDSKKNVWIPDPEEGYLAGEITATKGDQVTIVTARGNEVTLKKELVQEMNPPKFEKTEDMSNLSFLNDASVLHNLRSRYAAMLIYTYSGLFCVVINPYKRLPIYTDSCARMFMGKRKTEMPPHLFAVSDEAYRNMLQDHENQSMLITGESGAGKTENTKKVICYFAAVGASQQEGGAEVDPNKKKVTLEDQIVQTNPVLEAFGNAKTVRNNNSSRFGKFIRIHFNKHGRLASCDIEHYLLEKSRVIRQAPGERCYHIFYQIYSDFRPELKKELLLDLPIKDYWFVAQAELIIDGIDDVEEFQLTDEAFDILNFSAVEKQDCYRLMSAHMHMGNMKFKQRPREEQAEPDGTDEAEKASNMYGIGCEEFLKALTKPRVKVGTEWVSKGQNCEQVNWAVGAMAKGLYSRVFNWLVKKCNLTLDQKGIDRDYFIGVLDIAGFEIFDFNSFEQLWINFVNEKLQQFFNHHMFVLEQEEYAREGIQWVFIDFGLDLQACIELIEKPLGIISMLDEECIVPKATDLTLASKLVDQHLGKHPNFEKPKPPKGKQGEAHFAMRHYAGTVRYNCLNWLEKNKDPLNDTVVSAMKQSKGNDLLVEIWQDYTTQEEAAAKAKEGGGGGKKKGKSGSFMTVSMLYRESLNNLMTMLNKTHPHFIRCIIPNEKKQSGMIDAALVLNQLTCNGVLEGIRICRKGFPNRTLHPDFVQRYAILAAKEAKSDDDKKKCAEAIMSKLVNDGSLSEEMFRIGLTKVFFKAGVLAHLEDIRDEKL
notes: MHC-B muscle myosin (Myo4_Cel), C. elegans, motor domain residues 1-790; the state is told by the assay; also called MHC (1-790); Myo4_Cel; source: High Five insect cells, baculovirus; purified (Ni-NTA, SEC) alone or as a complex with UNC-45; not shown: His6, C-terminal, kept

Assays:
[1] = target: T1, Kluyveromyces lactis SHE4, wildtype (Kluyveromyces lactis); assay: ITC; 25 °C, VP-ITC; 10 μM SHE4 in the cell, 90 μM (N475A: 107 μM) peptide in the syringe; 10 mM HEPES pH 8.0, 150 mM NaCl, 1 mM TCEP; single site model; conditions: both partners purified
T1 chain: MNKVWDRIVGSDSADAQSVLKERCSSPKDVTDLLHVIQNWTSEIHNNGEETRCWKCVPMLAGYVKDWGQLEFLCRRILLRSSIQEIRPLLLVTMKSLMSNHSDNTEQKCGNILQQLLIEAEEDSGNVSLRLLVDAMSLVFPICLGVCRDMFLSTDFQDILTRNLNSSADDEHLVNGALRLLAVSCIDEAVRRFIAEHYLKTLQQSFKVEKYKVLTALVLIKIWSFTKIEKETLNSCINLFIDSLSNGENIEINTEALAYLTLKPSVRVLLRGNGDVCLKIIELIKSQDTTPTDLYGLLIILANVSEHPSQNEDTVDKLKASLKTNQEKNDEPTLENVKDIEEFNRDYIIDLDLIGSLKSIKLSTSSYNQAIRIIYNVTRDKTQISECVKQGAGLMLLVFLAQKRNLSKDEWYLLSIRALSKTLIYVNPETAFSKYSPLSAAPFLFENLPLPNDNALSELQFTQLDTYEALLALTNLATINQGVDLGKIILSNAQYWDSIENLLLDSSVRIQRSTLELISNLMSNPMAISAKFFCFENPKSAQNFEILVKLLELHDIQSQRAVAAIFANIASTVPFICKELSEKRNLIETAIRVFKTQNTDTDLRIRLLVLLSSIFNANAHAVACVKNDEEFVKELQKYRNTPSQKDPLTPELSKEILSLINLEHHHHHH

[2] = target: T2, 547–588 myosin peptide (MHC-B) (C. elegans, UniProt P02566 547-588); assay: thermal shift assay; 1 μM UNC-45 or UNC-45 ΔUCS, 2 mM peptide, SYPRO Orange, 20 mM HEPES pH 8.0, 150 mM NaCl; triplicates; conditions: both partners purified
T2 construct: also called native peptide; identified myosin ligand; source: synthetic peptide
T2 peptide (looked up): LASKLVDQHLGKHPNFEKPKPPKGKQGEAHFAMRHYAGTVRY

[3] = target: B2; assay: cross-linking; XL-MS of the in vitro reconstituted UFD-2:UNC-45:myo^UF complex; 0.25 mM DSS, 20 mM HEPES pH 8.0, 150 mM NaCl, 25 °C, 30 min; conditions: both partners purified
[4] = target: T3, C. elegans UNC-45 (co-expressed with the MHC-B motor domain in insect cells) (C. elegans, UniProt G5EG62 1-961); assay: tandem affinity co-purification + SEC; co-expressed in insect cells; HisTrap (myosin) then Strep-Tactin (UNC-45), then Superdex 200 in 20 mM HEPES pH 8.0, 150 mM NaCl; conditions: partners not purified
T3 construct: UNC-45 chaperone, C. elegans; also called UNC-45 WT; wildtype UNC-45; source: High Five insect cells, baculovirus, co-expressed with myosin; purified as a complex (HisTrap, Strep-Tactin, SEC); in cleared lysate in the solubility assay
T3 sequence: B2 chain

B1
Kd [1]: 600 nM

B2
increase of melting temperature (Tm) [2]: 5.5 °C

B3
binding result [3]: binds | binding result [4]: binds
